System: xanthine oxidase
Experiment: In vitro enzyme activity of xanthine oxidase in a protein matrix array piece (Sigma Enzymatic Assay of Superoxide Dismutase protocol, spectrophotometer)
Type: biochemical
Conditions: absorbance measured at 550 mm, cytochrome C and other reactants, no enzyme activity produces 0.00000 change

xanthine oxidase
enzyme activity of xanthine oxidase (change in absorbance): 0.0250 delta absorbance/min

— patent US20030007991A1, “Devices including protein matrix materials and methods of making and using thereof” (priority 1998, published 2003)
